# Source: the supplement of paper PMC9170038
# Tested on: MS2 coat protein
# Assay: apparent KD of MS2 coat protein; higher = weaker reporter binding
# Settings: Eterna round: R107
# Outline: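 The designed RNA switches were transcribed on-chip from Illumina sequencing clusters. In 100 mM Tris-HCl pH 7.5, 80 mM KCl and 4 mM MgCl2, without or with constant ligand, they were titrated with SNAP-549-labelled MS2 coat protein from 0.7 or 1.5 nM to 3 µM in twofold steps. Apparent KD is the per-design median of normalised cluster binding-curve fits.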
# [1] = input ligand: theophylline 20 uM
# [2] = input ligand: tryptophan 2.4 mM
# [3] = input ligand: theophylline 2 mM
Sequence,apparent KD of MS2 coat protein (input ligand: arginine 13.2 mM) [nM],apparent KD of MS2 coat protein [1] [nM],apparent KD of MS2 coat protein [2] [nM],apparent KD of MS2 coat protein (input ligand: none) [nM],apparent KD of MS2 coat protein [3] [nM]
AAUGGCGUUGGUGAGGCGGUUAAUGGCGAUACCAGCGUGGAAACACGCCCUUGGCAGCGCCAAAACAUGAGGAUCACCCAUGUUA [Olomouc],15.8,23.5,16.9,–,–
CCUGCGUUUCUUUUCUUUCGCAGGAAUGAUACCAGUAGGGAAACCUACCCUUGGCAGCAUGGGACAUGAGGAUCACCCAUGUUAU [SSThA NP+V+V2 #3],167,243,300,–,–
UGUAUGGACUGAAGGAGCGGGUAAUAAAUCUGAGGAUCACCCAGGUAAUAGGCGAAAGCCACCCAGGUAGGUCGCAGUCCAUACU,17.7,25.1,19.4,19,19.3
UGUAUGUGAAGUGAUACCAGUCCAUAAACUGGAACAUGAGGAUCACCCAUGUAAUGGGUGGACCCUUGGCAGCACUUCUCAUACU [First try],48,468,190,–,–
GAUAUAUAUCGAAGGAGCGGCCCUUGAUCCUCAUGAGACAUGAGGAUCACCCAUGUCUCGGGCCAGGUAGGUCGCGAUAUAUAUC [Astros-omei-mod2],26.3,28.8,22.8,21.2,24.2
ACGGUUGGUUCGUUACCUCAUAUCUCAGAAGGAGCGGGCAGUAGUCCAGGUAGGUCGCUGGGACAUGAGGAUCACCCAUGUCUUA [Aataer],22.4,139,166,103,211
UGACAUUGCUCAGAUACCAGACUUGAGGAACACCCAAGUGCCAACAAGUAUAUAAUAAAAGUCCCUUGGCAGCUGAGCAAUGUCU [TheoBX 19 #MS2Left #AlternativeMS2 #Theo2],42.8,105,45.3,47.8,318
AAUAUAAGUGUAAUUUUAUGUAUCUCUGAUACCAGACCCUCAUGUGUCCCUUGGCAGCAGUAACAUGAGGAUCACCCAUGUAAAA [JR_Nu_SSTheophyA_Sub023],30.7,103,86,–,–
GGCCAUGGAAACAUGGCGGCGGCAUAAGCGCGAGGACCGGUACGGCCGCCACUCGGGCGACAUGAGGAUCACCCAUGUUCCUCAU [ETA NP+V+V2 #23 Same Structure],105,413,–,–,529
UUUUUCGCGGGCGAUACCAGCUUGAUCGUACUGGCCUGGUACAUGAGGAUCACCCAUGUAAGCCCUUGGCAGCGCGCGCGAGAAG [#1 Exclusion - Theophylline B Attempt #2 (HarryS)],10.8,17.7,12,11.5,30.4
UGUAACAUGAGGAUCACCCAUGUAAGUGAUACCAGAUAAGUAGUAGUCCCUUGGCAGCAUAUUGGGAAAGUGUAUAGUCUAUAUU [Same State - Theophylline A (Freestyle 3)],43.6,74.9,51.1,–,–
GGUGGUGGGACGGAUACCAGCCACCGCGGCAACGCAACAUGAGGAUCACCCAUGUUGGGUGGCCCUUGGCAGCUGUCCUGCGGCG [#1 Same State - Theophylline B Attempt #25 (HarryS)],12.6,18.5,12.7,–,–
GCAUGUUGGUGGUAUCUGCGAAGGCGGAAUCGAGGACCGGUACGGCCGCCACUCGGCGACAUGAGGAUCACCCAUGUGGUUAGGA [Exclusion - Tryptophan A (Freestyle 8)],18.6,170,203,238,658
UUAAUUAUAUAUUAUAUAAUAUAUACAGAAGGAGCGUGAUAAAACACAGGUAGGUCGCUGAAGGGAACAUGAGGAUCACCCAUGU [AstrosSSArgA#1],26.9,38.5,30,25.6,48.6
CUACAUUUGUAGAAACCGGUCACCGUUACUCGAGGACCGGUACGGCCGCCACUCGUGUCACGUGAUACAUGAGGAUCACCCAUGU [Tryptophan A 11],28.9,45.7,–,–,54.8
UAAGUUAGGGCGGCCGCCACUCGAACAUGAGGAUCACCCAUGUAAAUUAAUUAAAGGACAUGAAUGAGGACCGGGCCAAGUUAGA [Same State - Tryptophan B / A],13.9,20.2,–,–,15.2
AGACAUGUAAGAUAAUUGACUUUUACAGAUACCAGACUGUCUAAUGUCCCUUGGCAGCUGCAUUACAUGAGGAUCACCCAUGUUA [JR_ExcTheophyA_Sub011],15.9,20.3,17.5,–,–
ACAUGAGGAUCACCCAUGUCACGGCACGAUACCAGCUGAUCCGGUGGCCCUUGGCAGCGUGACGUUUGGUCCCGCGGAUGACACG [ppmullin],96.5,142,137,–,–

Sequence,apparent KD of MS2 coat protein (input ligand: arginine 13.2 mM) [nM],apparent KD of MS2 coat protein [1] [nM],apparent KD of MS2 coat protein [2] [nM],apparent KD of MS2 coat protein (input ligand: none) [nM],apparent KD of MS2 coat protein [3] [nM]
AAUAGUCCUCGACAUGAGGAUCACCCAUGUCGAGGACCGGUACGGCCGCCACUCGACAUGAGGAUCACCCAUGUUGAGUGAUAAA [prototype 1],7.58,8.26,–,–,7.82
AUCCAGAGCCGAAGGAGCGCUAGAAGAUGACAUGAGGAUCACCCAUGUGUGUGAUGUGGCUAGCAGGUAGGUCGCGGACUGGAUU [Exclusion - Arginine B (Freestyle 13)],20.1,28.1,18.7,22.4,33.5
UGACAUUGCUCAGAUACCAGACAUGAGGAUCACCCAUGUACCAAGGUAACCGAAAGGCAUGUCCCUUGGCAGCUGAGCAAUGUCU [TheoBX 2 #MS2Left #Theo2 #StaticStem],13,18.9,11.9,–,–
AAUUUUCACGGAAGGAGCGUCACGUAAUUCAUACAUGAGGAUCACCCAUGUUAGUGGUAGAGACAGGUAGGUCGCCGUUAUUUGA [JR_AAArginiB_Sub026],14.3,35.3,21.4,16.8,20.3
CUUGAGACAUGAGGAUCACCCAUGUCCGAAGGAGCGUGCGAAAGCACAGGUAGGUCGCGGACAUGAGGAUCACCCAUGUGAGCGA [EAA NP+V+V2 #7 DOUBLE],13.8,25.9,22,21.8,40.2
AUACAUGAGGAUCACCCAUGUAUAGAUGAAGGAGCGACCAGAGGGUCAGGUAGGUCGCAUCACAUGAGGAUCACCCAUGUAUCGA [DOUBLE!!! :-D #8],33.6,53,47.1,56.8,67.2
ACUUGAUACUGAAGGAGCGUCGGAUAAACUCGCACAUGAGGAUCACCCAUGUAUAUGAAUCGACAGGUAGGUCGCAGUAUCGAGU [Arg B SS t6],13,19.7,15.3,13.6,15.6
AGAUGAGUCACGGCCGCCACUCACUUCAGGUUCACCCUUGGUUAACAUGAGGAUCACCCAUGUGGGAGGACCGGGUGAUGAGCAU [XTryp B #3],11.8,23.8,–,–,25.3
AAUUGGGUUGGUGAGGUGGUUGGAGGCGAUACCAGCGUGGAAACACGCCCUUGGCAGCGCCAAAACAUGAGGAUCACCCAUGUUA [Plzen],42,365,157,475,484
CGGAGUAUGACGGCCGCCACUUGCCGGGCGCAGCUGGCUGCUUGACAUGAGGAUCACCCAUGUCCAAGGACCGGGUCAUUCCUCG [theeternabot_sameState_MS2_Trp_B_37],59.4,145,–,–,189
UUGGGUUUGUGAAGGAGCGGGUAUGUUUUAUAGUGGAUCCUAACAUGAGGAUCACCCAUGUCCCAGGUAGGUCGCGCGGGUUUGG [12.T],54.4,203,117,78.3,149
ACAUGAGGAUCACCCAUGUGGCGACUUGAUACCAGACCCGCACUAGUCCCUUGGCAGCAACUACGUGUGGGACACCCAUGUUAAG [lplmullin],17.3,22.7,16,–,–
GCCGCGGCCGCGAUACACAUGGGUGUGUAACGAGGACCGGUACGGCCGCCACUCGAGAUGGUGUACAUGAGGAUCACCCAUGUAC [Exclusion Tryp A GF14],10.5,21.5,13.4,14.5,17.4
GGCGCGCGCCAACAUGAGGAUCACCCAUGUCGAGGACCGGUACGGCCGCCACUCGAACGAGUGAAGCGCGCGCGCGGAGCGCCGC [Taa],24,47.8,60.1,37.1,47
AGUGUCGGAGCGGCCGCCACUAGCACAUCUGGUCGCCAUGGCAACAUGAGGAUCACCCAUGUUGCUAGGACCGGGCUCAAUAUUU [Maengele],8.37,10.9,–,–,8.8
UGUAUGUGAUUUGAUACCAGACCAGCUGGUGGUACCUGAGGAUCACCCGGGUAGGUUUGGGUCCCUUGGCAGCAAAUCGCAUACU [SS Theo B #24 Ms8],48.6,52.1,48.6,48.6,31.5
UGUGCAGGAUGCGUAAAGGGUCUUGCGCAUCGAGGACCGGUACGGCCGCCACUCGGCUGUACAUGAGGAUCACCCAUGUCAGGGU [#1 Same State - Tryptophan A Attempt #19 (HarryS)],87.1,445,533,477,1830
UGUAUGUGAUCUGAUACCAGUCCAACUGGUAAAACAAGAGGAUCACCCUUGUAAAAUUGGGACCCUUGGCAGCAGAUCGCAUACU,251,409,733,472,29.8
